Test results taken from patent US20250340636A1 (Memorial Sloan Kettering, published 2025).

Experiments:
[1] = biological target: T1, soluble cynomolgus monkey L1CAM, His-tagged, monomeric (cynomolgus monkey, UniProt A0A2K5URB5 20-1120); assay: summary table; soluble cynomolgus monkey L1CAM (monomer)
T1 construct: also called cyL1CAM protein; cynomolgus L1CAM-His
Procedure: (§1) Cross-reactivity to Cynomolgus Monkey L1CAM. Affinity to cynomolgus L1CAM was measured by BLI using an Octet Red96e instrument. […] The data was prepared by reference well subtraction, and response curves were globally fit to a 1:1 Langmuir binding model.

human L1CAM on cells [2] = biological target: T2, human L1CAM on cells (human, UniProt P32004 20-1257); assay: summary table; binding to cells with endogenous L1CAM (MDA-MB-231)
T2 construct: Overexpressed on stably transfected HEK293T cells or endogenous on MCF-7 and MDA-MB-231 cells; also called HEK293T-hL1CAM
T2 sequence (P32004 20-1257): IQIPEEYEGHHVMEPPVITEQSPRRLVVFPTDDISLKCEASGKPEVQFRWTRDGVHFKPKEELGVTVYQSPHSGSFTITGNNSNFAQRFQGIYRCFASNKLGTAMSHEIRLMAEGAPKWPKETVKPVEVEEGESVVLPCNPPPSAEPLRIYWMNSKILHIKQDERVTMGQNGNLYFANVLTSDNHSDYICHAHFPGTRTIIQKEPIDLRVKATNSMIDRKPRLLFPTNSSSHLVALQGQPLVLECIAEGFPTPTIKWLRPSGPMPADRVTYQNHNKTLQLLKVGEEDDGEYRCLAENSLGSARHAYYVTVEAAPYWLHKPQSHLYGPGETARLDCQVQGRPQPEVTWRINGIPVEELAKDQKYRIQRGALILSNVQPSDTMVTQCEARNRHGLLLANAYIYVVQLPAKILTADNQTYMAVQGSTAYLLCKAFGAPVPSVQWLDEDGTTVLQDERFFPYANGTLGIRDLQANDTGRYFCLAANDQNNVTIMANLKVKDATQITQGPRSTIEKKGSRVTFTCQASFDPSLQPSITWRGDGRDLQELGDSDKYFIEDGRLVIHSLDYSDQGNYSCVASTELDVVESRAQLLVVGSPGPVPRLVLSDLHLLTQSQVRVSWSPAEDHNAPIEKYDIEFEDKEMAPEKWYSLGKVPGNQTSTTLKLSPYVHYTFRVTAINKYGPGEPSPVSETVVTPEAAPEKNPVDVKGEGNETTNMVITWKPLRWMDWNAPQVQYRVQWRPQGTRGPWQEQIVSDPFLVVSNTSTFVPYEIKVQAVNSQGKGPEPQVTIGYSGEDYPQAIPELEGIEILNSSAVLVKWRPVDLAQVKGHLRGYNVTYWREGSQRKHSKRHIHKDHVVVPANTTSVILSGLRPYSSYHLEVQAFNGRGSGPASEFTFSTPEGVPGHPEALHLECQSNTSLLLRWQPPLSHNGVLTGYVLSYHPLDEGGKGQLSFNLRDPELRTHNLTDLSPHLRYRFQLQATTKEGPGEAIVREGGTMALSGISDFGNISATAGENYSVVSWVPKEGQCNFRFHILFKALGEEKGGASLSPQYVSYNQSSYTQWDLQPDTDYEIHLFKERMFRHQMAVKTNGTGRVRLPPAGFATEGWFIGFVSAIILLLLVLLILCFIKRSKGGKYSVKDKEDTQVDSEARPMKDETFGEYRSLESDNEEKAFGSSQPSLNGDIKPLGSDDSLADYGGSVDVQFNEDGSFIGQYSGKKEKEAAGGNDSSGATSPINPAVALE
Procedure: (§2) Binding to L1CAM on Cells. […] Cells were then incubated with an AlexaFluor 647 goat anti-human Fc secondary antibody. After washing, the stained cells were analyzed by flow cytometry.
(§3) The binding curves for each antibody and cell line normalized to secondary antibody only staining (MFI ratio) are shown in FIGS. 14A-14C. EC50 values were determined by non-linear regression (Table 70). […] It is possible that differences in the conformation and oligomerization of L1CAM, depending on the surface expression level, contributed to the binding pattern. […] An avidity effect due to high levels of L1CAM surface expression may have contributed to the strong binding observed in this experiment.

human L1CAM on cells [3] = biological target: T2, human L1CAM on cells; assay: summary table; binding to cells overexpressing human L1CAM (HEK293T)
Procedure: as §2, §3

[4] = biological target: T3, mouse L1CAM on transiently transfected HEK293FT cells (mouse, UniProt P11627 20-1260); assay: flow cytometry, cells transfected with mouse L1CAM
T3 construct: whole, on cells; also called mouse L1CAM on cells
T3 sequence (P11627 20-1260): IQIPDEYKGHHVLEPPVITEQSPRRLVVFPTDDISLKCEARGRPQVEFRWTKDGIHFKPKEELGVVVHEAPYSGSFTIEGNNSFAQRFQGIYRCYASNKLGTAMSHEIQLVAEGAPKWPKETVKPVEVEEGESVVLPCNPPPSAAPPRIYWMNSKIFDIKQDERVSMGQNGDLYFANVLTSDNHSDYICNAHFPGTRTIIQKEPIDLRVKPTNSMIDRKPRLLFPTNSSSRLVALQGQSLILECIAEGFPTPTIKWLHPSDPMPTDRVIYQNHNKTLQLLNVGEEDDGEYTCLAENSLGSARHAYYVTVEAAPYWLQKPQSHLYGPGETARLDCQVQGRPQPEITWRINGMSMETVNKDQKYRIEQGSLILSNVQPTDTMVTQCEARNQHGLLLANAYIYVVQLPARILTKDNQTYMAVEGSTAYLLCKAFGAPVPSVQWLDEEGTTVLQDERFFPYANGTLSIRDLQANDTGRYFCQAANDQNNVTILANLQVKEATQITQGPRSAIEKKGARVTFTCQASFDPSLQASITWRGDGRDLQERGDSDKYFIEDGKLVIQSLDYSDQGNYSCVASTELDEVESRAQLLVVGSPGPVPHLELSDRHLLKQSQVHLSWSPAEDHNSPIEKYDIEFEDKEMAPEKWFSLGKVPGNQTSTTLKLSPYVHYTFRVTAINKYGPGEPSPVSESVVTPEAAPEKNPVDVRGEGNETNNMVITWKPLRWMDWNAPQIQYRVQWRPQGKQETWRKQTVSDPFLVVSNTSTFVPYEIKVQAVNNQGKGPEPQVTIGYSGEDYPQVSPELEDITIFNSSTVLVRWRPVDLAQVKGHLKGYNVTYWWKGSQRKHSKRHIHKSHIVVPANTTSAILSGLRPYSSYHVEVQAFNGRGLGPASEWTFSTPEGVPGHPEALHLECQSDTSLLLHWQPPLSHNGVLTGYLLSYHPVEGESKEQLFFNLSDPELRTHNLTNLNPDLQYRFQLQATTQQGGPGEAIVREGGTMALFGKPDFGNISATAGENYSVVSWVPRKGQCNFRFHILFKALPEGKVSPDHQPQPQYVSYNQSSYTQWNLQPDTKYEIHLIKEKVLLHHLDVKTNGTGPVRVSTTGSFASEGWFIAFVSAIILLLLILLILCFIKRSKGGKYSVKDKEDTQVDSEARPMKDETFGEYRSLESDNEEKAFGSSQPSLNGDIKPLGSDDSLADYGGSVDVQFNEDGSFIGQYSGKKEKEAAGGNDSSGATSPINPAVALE

[5] = biological target: T1, soluble cynomolgus monkey L1CAM, …; assay: BLI, cynomolgus against human L1CAM-His
Procedure: as §1

[6] = biological target: T4, human CHL-1 (residues 25-1096 with a C-terminal 10xHis tag) (human, UniProt O00533 25-1096); assay: ELISA, plates coated with human CHL-1
T4 construct: range 25-1096; also called L1CAM-2; L1CAM2
T4 sequence: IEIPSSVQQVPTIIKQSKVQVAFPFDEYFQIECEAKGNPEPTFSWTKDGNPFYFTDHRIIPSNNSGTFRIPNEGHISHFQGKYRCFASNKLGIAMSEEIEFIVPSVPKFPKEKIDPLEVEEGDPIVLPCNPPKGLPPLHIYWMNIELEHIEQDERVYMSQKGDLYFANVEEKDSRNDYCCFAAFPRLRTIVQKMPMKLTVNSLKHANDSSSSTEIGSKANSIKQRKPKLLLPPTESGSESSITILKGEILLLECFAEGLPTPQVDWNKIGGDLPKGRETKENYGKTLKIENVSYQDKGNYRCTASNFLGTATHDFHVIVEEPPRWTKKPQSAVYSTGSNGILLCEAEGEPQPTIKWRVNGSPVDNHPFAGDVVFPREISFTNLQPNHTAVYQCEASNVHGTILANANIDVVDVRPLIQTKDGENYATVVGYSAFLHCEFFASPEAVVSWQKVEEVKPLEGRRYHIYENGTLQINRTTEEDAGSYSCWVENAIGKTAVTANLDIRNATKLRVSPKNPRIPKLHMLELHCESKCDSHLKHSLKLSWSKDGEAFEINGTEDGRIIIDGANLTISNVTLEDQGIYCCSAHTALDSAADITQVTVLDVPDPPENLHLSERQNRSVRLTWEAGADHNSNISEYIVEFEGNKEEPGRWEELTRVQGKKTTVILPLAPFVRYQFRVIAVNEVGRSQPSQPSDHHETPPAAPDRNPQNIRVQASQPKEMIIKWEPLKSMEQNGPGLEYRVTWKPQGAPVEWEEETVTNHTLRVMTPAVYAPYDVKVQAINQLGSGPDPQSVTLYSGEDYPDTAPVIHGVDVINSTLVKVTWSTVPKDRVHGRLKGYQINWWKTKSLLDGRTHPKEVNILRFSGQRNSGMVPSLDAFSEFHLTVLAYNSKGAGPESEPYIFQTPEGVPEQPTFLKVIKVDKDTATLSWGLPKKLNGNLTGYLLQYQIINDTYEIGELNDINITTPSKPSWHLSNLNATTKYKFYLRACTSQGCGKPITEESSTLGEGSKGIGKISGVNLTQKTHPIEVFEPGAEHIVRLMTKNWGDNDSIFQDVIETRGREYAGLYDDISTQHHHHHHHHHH
Source text: Selectivity. […] These proteins are other members of the L1 family of cell adhesion proteins and have between 49% and 55% sequence similarity with L1CAM in the extracellular portion. […] Positive control antibodies were included for each homolog. […] Epitope. The extracellular portion of L1CAM contains six immunoglobulin-like (Ig) domains and five fibronectin type III (FN) domains. To narrow down the binding region of the development candidate mAbs, truncated versions of human L1CAM protein (Ig domain, residues 21-605; FN domain, residues 606-1116; each with a C-terminal 6×His tag) were recombinantly produced, followed by a BLI experiment to test binding at 50 and 100 nM. […] 6×His tag is set forth in SEQ ID NO: 316.

human L1CAM on cells [7] = biological target: T2, human L1CAM on cells; assay: flow cytometry, MDA-MB-231 cells, AlexaFluor 647 anti-human Fc secondary
Procedure: as §2, §3

[8] = biological target: T5, soluble mouse L1CAM (monomer), His-tagged (mouse, UniProt P11627 20-1123, limits assumed); assay: BLI (Octet Red96e), His-tagged L1CAM on Ni-NTA biosensors, mAb as analyte
T5 construct: read as mouse
T5 sequence (P11627 20-1123 limits assumed): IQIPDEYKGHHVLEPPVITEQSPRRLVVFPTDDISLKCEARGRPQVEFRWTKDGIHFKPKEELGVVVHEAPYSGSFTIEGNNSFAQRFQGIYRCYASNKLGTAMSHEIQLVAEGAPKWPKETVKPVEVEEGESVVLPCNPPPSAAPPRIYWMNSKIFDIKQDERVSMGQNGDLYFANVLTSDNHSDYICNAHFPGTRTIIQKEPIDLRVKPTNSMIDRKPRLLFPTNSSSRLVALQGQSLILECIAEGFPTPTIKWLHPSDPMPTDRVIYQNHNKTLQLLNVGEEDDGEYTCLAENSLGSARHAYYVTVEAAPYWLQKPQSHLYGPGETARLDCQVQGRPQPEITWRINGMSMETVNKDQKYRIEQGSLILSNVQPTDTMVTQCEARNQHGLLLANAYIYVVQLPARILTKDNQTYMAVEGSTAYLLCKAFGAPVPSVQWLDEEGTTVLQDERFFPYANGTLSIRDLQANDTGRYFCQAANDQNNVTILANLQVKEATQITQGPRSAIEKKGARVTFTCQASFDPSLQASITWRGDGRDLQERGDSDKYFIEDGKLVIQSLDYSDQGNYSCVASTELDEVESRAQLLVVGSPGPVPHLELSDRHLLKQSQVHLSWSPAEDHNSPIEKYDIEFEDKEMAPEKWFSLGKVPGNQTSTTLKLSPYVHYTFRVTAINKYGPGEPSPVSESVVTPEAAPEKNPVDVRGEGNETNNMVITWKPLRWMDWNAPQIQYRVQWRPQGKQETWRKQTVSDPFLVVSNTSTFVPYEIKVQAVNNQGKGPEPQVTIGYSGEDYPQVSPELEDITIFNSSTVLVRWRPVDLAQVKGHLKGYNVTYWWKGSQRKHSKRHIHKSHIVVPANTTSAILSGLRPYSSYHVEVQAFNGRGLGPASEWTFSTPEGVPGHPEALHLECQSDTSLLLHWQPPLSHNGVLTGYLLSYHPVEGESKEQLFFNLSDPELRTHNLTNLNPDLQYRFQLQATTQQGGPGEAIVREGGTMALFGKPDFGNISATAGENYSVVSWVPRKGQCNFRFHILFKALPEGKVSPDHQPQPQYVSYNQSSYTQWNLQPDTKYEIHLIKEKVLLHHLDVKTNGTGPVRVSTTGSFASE
Procedure: Cross-reactivity to Mouse L1CAM. Affinity to mouse L1CAM was measured by BLI using an Octet Red96e instrument. […] The data was prepared by reference well subtraction, and response curves were globally fit to a 1:1 Langmuir binding model.

[9] = biological target: T6, extracellular domain of human L1CAM (isoform 1) fused to a poly-histidine tag via its carboxy terminus (human, UniProt P32004 20-1120); assay: summary table; binding to soluble human L1CAM (monomer)
T6 construct: Bought (Creative Biomart); also called L1CAM-His; huL1CAM protein
T6 sequence (P32004 20-1120): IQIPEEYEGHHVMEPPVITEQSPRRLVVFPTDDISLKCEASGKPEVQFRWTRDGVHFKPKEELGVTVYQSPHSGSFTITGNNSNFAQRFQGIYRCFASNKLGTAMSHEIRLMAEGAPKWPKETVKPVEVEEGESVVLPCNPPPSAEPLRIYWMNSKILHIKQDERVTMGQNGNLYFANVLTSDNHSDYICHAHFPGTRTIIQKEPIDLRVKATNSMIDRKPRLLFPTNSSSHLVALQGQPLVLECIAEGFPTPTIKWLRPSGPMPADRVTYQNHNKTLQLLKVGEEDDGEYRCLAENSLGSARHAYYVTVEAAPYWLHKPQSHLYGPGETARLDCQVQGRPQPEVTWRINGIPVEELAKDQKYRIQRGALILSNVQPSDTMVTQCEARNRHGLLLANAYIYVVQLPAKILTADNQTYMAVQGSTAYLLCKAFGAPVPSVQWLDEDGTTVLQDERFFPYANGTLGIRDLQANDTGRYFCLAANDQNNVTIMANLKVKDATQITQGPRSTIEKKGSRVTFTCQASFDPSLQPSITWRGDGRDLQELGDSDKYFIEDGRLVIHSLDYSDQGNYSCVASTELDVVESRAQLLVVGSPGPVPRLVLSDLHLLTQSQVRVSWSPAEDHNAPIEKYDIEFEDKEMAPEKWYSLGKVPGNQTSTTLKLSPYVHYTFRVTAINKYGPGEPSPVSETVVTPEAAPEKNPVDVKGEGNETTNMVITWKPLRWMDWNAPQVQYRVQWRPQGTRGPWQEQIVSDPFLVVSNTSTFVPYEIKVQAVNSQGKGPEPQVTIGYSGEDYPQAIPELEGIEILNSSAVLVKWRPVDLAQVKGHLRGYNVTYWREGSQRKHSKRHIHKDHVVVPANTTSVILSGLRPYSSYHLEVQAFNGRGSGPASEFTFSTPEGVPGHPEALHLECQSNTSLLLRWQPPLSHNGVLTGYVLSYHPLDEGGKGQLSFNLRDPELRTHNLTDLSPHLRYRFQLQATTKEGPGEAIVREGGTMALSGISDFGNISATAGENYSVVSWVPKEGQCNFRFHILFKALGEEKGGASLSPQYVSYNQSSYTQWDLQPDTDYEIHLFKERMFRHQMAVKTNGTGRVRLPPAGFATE
Procedure: (§4) Binding to L1CAM in Solution. Affinity to human L1CAM was measured by BLI using an Octet Red96e instrument. […] The data was prepared by reference well subtraction, and response curves were globally fit to a 1:1 Langmuir binding model.

[10] = biological target: T6, extracellular domain of human L1CAM …; assay: BLI, His-tagged human L1CAM
Procedure: as §4

[11] = biological target: T6, extracellular domain of human L1CAM …; assay: BLI (Octet Red96e), His-tagged human L1CAM on Ni-NTA biosensors, mAb as analyte, 1:1 fit
Procedure: as §4

human L1CAM on cells [12] = biological target: T2, human L1CAM on cells; assay: summary table; binding to cells with endogenous L1CAM (MCF-7)
Procedure: as §2, §3

human L1CAM on cells [13] = biological target: T2, human L1CAM on cells; assay: flow cytometry, MCF-7 cells, AlexaFluor 647 anti-human Fc secondary
Procedure: as §2, §3

[14] = biological target: T1, soluble cynomolgus monkey L1CAM, …; assay: BLI (Octet Red96e), His-tagged cynomolgus L1CAM on Ni-NTA biosensors, mAb as analyte, 1:1 fit
Procedure: as §1

human L1CAM on cells [15] = biological target: T2, human L1CAM on cells; assay: flow cytometry, HEK293T-hL1CAM cells, AlexaFluor 647 anti-human Fc secondary
Procedure: as §2, §3

B1: TDI-Y-004 (antibody, human IgG1, kappa, V domains shown)
VH: QVQLVQSGAEVKKPGSSVKVSCKASGYTFTNYYIHWVRQAPGQGLEWMGKIGPGSGSPYYQGMFKDRVTITADESTSTAYMELSSLRSEDTAVYYCARWLLPFDYWGQGTLVTVSS
VL: EIVLTQSPGTLSLSPGERATLSCRASSSVNYMHWYQQKPGQAPRLLIYATSILASGIPDRFSGSGSGTDYTLTISRLEPEDFAVYYCQQFSSDPLTFGGGTKVEIKR
notes: Human IgG1, kappa; also called humanized 143G03 (N61Q) mAb; hz143G03 (N61Q)
Kd [1]: 0.3 nM
koff [1]: 4.7e-05 s⁻¹
kon [1]: 160000 M⁻¹ s⁻¹
EC50 (human L1CAM on cells [2]): 2.5 nM
EC50 (human L1CAM on cells [3]): 2.2 nM
binding result [4]: no binding
fold difference of KD against human L1CAM [5]: ≤ 1.2 fold
binding result [6]: no binding (tested: 1 µM)
EC50 (human L1CAM on cells [7]): 2.5 nM
binding result [8]: no binding (tested: dilution series starting at 50 nM)
Kd [9]: 0.35 nM
koff [9]: 9.5e-05 s⁻¹
kon [9]: 270000 M⁻¹ s⁻¹
fold difference in KD against TDI-Y-005 [10]: ~10 fold
Kd [11]: 0.35 nM
koff [11]: 9.5e-05 s⁻¹
kon [11]: 270000 M⁻¹ s⁻¹
EC50 (human L1CAM on cells [12]): 1.3 nM
EC50 (human L1CAM on cells [13]): 1.3 nM
Kd [14]: 0.3 nM
koff [14]: 4.7e-05 s⁻¹
kon [14]: 160000 M⁻¹ s⁻¹
EC50 (human L1CAM on cells [15]): 2.2 nM
